Experimental data from patent publication US20090082262A1 (published 2009).
*: point of attachment. Nonanoyl = CCCCCCCCC(=O)*

T1: chemokine receptor 1 (CCR1) (UniProt P56482 1-355)
T1 chain: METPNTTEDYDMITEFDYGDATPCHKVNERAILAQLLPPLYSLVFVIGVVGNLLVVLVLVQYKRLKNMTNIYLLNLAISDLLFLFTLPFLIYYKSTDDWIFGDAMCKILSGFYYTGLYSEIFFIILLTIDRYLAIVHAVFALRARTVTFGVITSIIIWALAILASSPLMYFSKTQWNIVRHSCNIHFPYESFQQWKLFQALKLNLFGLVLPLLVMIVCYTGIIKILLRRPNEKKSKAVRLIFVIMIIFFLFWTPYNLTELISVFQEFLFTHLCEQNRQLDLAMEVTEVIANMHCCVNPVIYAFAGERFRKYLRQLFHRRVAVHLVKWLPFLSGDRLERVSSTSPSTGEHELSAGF

B1: HCC-1[7-74] (ligand)
chain: SRGPYHPSECCFTYTTYKIPRQRIMDYYETNSQCSKPGIVFITKRGHSVCTNPSDKWVQDYIKDMKEN
B2: HCC-1[12-74] (protein)
chain: HPSECCFTYTTYKIPRQRIMDYYETNSQCSKPGIVFITKRGHSVCTNPSDKWVQDYIKDMKEN
B3: HCC-1[8-74] (ligand)
chain: RGPYHPSECCFTYTTYKIPRQRIMDYYETNSQCSKPGIVFITKRGHSVCTNPSDKWVQDYIKDMKEN
B4: HCC-1[11-74] (ligand)
chain: YHPSECCFTYTTYKIPRQRIMDYYETNSQCSKPGIVFITKRGHSVCTNPSDKWVQDYIKDMKEN
B5: HCC-1[10-74] (ligand)
chain: PYHPSECCFTYTTYKIPRQRIMDYYETNSQCSKPGIVFITKRGHSVCTNPSDKWVQDYIKDMKEN
B6: HCC-1, residues 6-74 (ligand)
chain: SSRGPYHPSECCFTYTTYKIPRQRIMDYYETNSQCSKPGIVFITKRGHSVCTNPSDKWVQDYIKDMKEN
B7: RANTES (ligand)
chain: SPYSSDTTPCCFAYIARPLPRAHIKEYFYTSGKCSNPAVVFVTRKNRQVCANPEKKWVREYINSLEMS
B8: NNY-HCC-1[10-74] (ligand)
chain: Nonanoyl-PYHPSECCFTYTTYKIPRQRIMDYYETNSQCSKPGIVFITKRGHSVCTNPSDKWVQDYIKDMKEN
modifications: ends and bridges not checked
B9: PHC-1 (HCC-1[9-74]) (ligand)
chain: GPYHPSECCFTYTTYKIPRQRIMDYYETNSQCSKPGIVFITKRGHSVCTNPSDKWVQDYIKDMKEN

Target: T1, chemokine receptor 1 (CCR1)
Test: competition binding

| Binder | IC50 [nM] |
| --- | --- |
| B1 | 4.36 |
| B2 | 50.1 |
| B3 | 2.42 |
| B4 | 5.07 |
| B5 | 0.182 |
| B6 | 6.52 |
| B7 | 0.166 |
| B8 | 0.0843 |
| B9 | 0.104 |
